Data on one variant can be found in IntAct's records for PubMed 16228008.

B1: E3 ubiquitin-protein ligase CBL-B (Homo sapiens), Q13191-1 (parent)
chain: MANSMNGRNPGGRGGNPRKGRILGIIDAIQDAVGPPKQAAADRRTVEKTWKLMDKVVRLCQNPKLQLKNSPPYILDILPDTYQHLRLILSKYDDNQKLAQLSENEYFKIYIDSLMKKSKRAIRLFKEGKERMYEEQSQDRRNLTKLSLIFSHMLAEIKAIFPNGQFQGDNFRITKADAAEFWRKFFGDKTIVPWKVFRQCLHEVHQISSGLEAMALKSTIDLTCNDYISVFEFDIFTRLFQPWGSILRNWNFLAVTHPGYMAFLTYDEVKARLQKYSTKPGSYIFRLSCTRLGQWAIGYVTGDGNILQTIPHNKPLFQALIDGSREGFYLYPDGRSYNPDLTGLCEPTPHDHIKVTQEQYELYCEMGSTFQLCKICAENDKDVKIEPCGHLMCTSCLTAWQESDGQGCPFCRCEIKGTEPIIVDPFDPRDEGSRCCSIIDPFGMPMLDLDDDDDREESLMMNRLANVRKCTDRQNSPVTSPGSSPLAQRRKPQPDPLQIPHLSLPPVPPRLDLIQKGIVRSPCGSPTGSPKSSPCMVRKQDKPLPAPPPPLRDPPPPPPERPPPIPPDNRLSRHIHHVESVPSRDPPMPLEAWCPRDVFGTNQLVGCRLLGEGSPKPGITASSNVNGRHSRVGSDPVLMRKHRRHDLPLEGAKVFSNGHLGSEEYDVPPRLSPPPPVTTLLPSIKCTGPLANSLSEKTRDPVEEDDDEYKIPSSHPVSLNSQPSHCHNVKPPVRSCDNGHCMLNGTHGPSSEKKSNIPDLSIYLKGDVFDSASDPVPLPPARPPTRDNPKHGSSLNRTPSDYDLLIPPLGEDAFDALPPSLPPPPPPARHSLIEHSKPPGSSSRPSSGQDLFLLPSDPFVDLASGQVPLPPARRLPGENVKTNRTSQDYDQLPSCSDGSQAPARPPKPRPRRTAPEIHHRKPHGPEAALENVDAKIAKLMGEGYAFEEVKRALEIAQNNVEVARSILREFAFPPPVSPRLNL
partner: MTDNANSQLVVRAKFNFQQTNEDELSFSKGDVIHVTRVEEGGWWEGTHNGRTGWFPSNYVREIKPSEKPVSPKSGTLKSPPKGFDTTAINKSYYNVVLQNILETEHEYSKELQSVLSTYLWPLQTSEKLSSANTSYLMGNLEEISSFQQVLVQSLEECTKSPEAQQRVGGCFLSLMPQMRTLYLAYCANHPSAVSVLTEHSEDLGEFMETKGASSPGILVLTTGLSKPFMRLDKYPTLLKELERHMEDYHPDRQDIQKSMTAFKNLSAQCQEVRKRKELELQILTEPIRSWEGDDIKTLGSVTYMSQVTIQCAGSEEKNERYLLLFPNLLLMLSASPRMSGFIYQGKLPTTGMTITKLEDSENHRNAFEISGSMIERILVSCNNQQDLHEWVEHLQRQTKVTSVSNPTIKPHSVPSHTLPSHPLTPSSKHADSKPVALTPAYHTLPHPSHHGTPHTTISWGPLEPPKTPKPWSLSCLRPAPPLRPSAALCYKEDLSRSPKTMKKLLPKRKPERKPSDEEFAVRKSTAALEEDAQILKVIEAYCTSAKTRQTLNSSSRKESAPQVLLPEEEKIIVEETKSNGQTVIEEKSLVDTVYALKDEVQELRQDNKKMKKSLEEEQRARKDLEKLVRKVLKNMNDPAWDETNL

The variants in this assay derive from B1. As to conditions: with arhg7_rat Arhgef7, O55043.
As for R904A, the “effect of a mutation on the interaction” value was “decreasing interaction strength”.
